In article PMC3736172 (Scientific Reports, 2013):
Where two headings read alike, the source gives them in different places.

Tests used:
SPase = biological target: T1, SPase (Rhodopirellula baltica, UniProt Q7UIS9); assay: turnover to fructose and glucose-1-phosphate; type: cell-based; conditions: recombinant enzyme
T1 sequence (Q7UIS9 1-571): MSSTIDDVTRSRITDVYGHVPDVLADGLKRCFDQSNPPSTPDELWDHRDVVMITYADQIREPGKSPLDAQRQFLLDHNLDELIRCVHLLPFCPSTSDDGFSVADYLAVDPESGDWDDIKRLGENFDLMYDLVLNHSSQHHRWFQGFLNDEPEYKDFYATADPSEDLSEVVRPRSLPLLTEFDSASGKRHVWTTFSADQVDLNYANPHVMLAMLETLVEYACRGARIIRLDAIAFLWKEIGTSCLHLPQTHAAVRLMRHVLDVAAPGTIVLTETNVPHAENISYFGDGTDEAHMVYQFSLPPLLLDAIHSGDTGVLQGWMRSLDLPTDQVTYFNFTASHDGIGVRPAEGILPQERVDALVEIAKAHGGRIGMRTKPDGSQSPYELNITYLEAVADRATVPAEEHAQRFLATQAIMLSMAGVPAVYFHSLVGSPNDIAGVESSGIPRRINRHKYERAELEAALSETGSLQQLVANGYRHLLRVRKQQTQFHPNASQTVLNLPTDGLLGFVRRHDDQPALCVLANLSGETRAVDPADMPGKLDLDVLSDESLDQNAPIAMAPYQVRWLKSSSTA

SEC [1] = biological target: the molecule itself; assay: SEC
SEC [2] = biological target: the molecule itself; assay: SEC; remark: listed apart in the source

OC[C@H]1O[C@@](CO)(O[C@H]2O[C@H](CO)[C@@H](O)[C@H](O)[C@H]2O)[C@@H](O)[C@@H]1O [sucrose]
turnover to fructose and glucose-1-phosphate (SPase): it catalyzed the conversion of sucrose to fructose and glucose-1-phosphate

B1: glucosyl-3-phosphoglycerate synthase (GpgS) from Rhodopirellula baltica, recombinant 398-amino acid enzyme (enzyme)
chain: PDFYQHDMITTIHDLRSAKLDNLESMLRESTRNHDIGLVLPVTASDMRAEPFDVIVRELAQADYIASIVVSLGVAPDQSDYDETCAKIAPLGDRAKVLWTDGPEVQGLYNELIESGIDVSVPGKGRSVWTAFGYLLDDPDIETFVLHDCDIVDYDRQLLTRLCLPMVHPGLDFEFCKAYYARVTDRMHGRVVRLLVAPLLRALMQCFPENQFVRFLGNFRYPLSGEFSLTRNLARTNRVASDWGLEVGTLADVYRNTSHKRVCQVDLARLYEHKHQTLAVDQPSSGLIKMALDILTTIYRTLASQGIVFGESTFVTLRASFLRIAQDCIRQYAADARVNSLKYDRHSEEMAIEAFAQCVTQAGEIFAADPSGNPSIPNWTRVRAAFPDFTSRLRETVK
stoichiometry N (SEC [1]): 5

B2: mannosylglucosyl-3-phosphoglycerate synthase (MggA) from Rhodopirellula baltica, recombinant (enzyme)
chain: MKISAMKILIVHCHFERGGVTQVVDNHVHCLQGSDEIDEVALVSGPRQSGLQETTRSSASIWRIASLEYDSLRDTSLNVDEQAQNDKQAQHTAREIDERCRQAGWTRQETVVHWHNHSLGKNAASPLVIKHLADFGYSCLLQIHDFAEDQRPQNWAYLKQSHGCEKASELDAILYPHGDRLSYATLTTGDAETLVQFGIHRSRVDVLPNSVRLPTDELPEFEVATHKVQRAFDLPADFRWMLYPVRGIRRKNLGEFLLMCQLAGRPTIGAMTLMPDTPMEKRSYERWQAVAERCVENVVFNAAHHEDIQFVDNLSAASVVVSSSVAEGFGMVFLEPWLASRSVVARNLPGVTGDFINHGMRLEHLYDAVQIPGSHSWLTEANRQFQNAKTDAWKDVRRDVETALSPSASDQSISDANEWIDFARLTPAMQIEVLVRFNTDSGFAKEVRDRNAALCDALVTDARPEIIDYNRNIVAANFGPENQKQQLLNAYRKAISNESIPGTGVQNDQTMLELVENSRPFYPCRVEQLD
stoichiometry N (SEC [2]): 2
